Experiments:
Assay in all cases: split reporter
[1] = target: HIV-1 Nef (SF2) 2PA (SH3-binding motif mutant), YFP BiFC fusions (HIV-1 (SF2 allele)) (UniProt P03407)
[2] = target: HIV-1 Nef (SF2) D123A, YFP BiFC fusions (HIV-1 (SF2 allele))
[3] = target: HIV-1 Nef (SF2) D123N, YFP BiFC fusions (HIV-1 (SF2 allele))
[4] = target: HIV-1 Nef (SF2) D123V, YFP BiFC fusions (HIV-1 (SF2 allele))
[5] = target: HIV-1 Nef (SF2) F121A, YFP BiFC fusions (HIV-1 (SF2 allele))
[6] = target: HIV-1 Nef (SF2) I109D/L112D/Y115D/F121D, YFP BiFC fusions (HIV-1 (SF2 allele))
[7] = target: HIV-1 Nef (SF2) L112A, YFP BiFC fusions (HIV-1 (SF2 allele))
[8] = target: HIV-1 Nef (SF2) L112D, YFP BiFC fusions (HIV-1 (SF2 allele))
[9] = target: HIV-1 Nef (SF2) L112D/Y115D, YFP BiFC fusions (HIV-1 (SF2 allele))
[10] = target: HIV-1 Nef (SF2) R105E, YFP BiFC fusions (HIV-1 (SF2 allele))
[11] = target: HIV-1 Nef (SF2) R105E/R106E, YFP BiFC fusions (HIV-1 (SF2 allele))
[12] = target: HIV-1 Nef (SF2) Y115D, YFP BiFC fusions (HIV-1 (SF2 allele))

Question: How did the % decrease in BiFC relative to WT [1] turn out when “HIV-1 Nef (SF2) 2PA (SH3-binding motif mutant), YFP BiFC fusions (from UniProt P03407) (natural protein)” was run?
Answer: 0%

Question: Which % decrease in BiFC relative to WT [2] does the source give for “HIV-1 Nef (SF2) D123A, YFP BiFC fusions (natural protein)” here?
Answer: 69.6%

Question: With “HIV-1 Nef (SF2) D123N, YFP BiFC fusions (natural protein)” as the substance, how does the % decrease in BiFC relative to WT [3] read?
Answer: 97.1%

Question: How did the % decrease in BiFC relative to WT [4] turn out when “HIV-1 Nef (SF2) D123V, YFP BiFC fusions (natural protein)” was run?
Answer: 52.9%

Question: Which % decrease in BiFC relative to WT [5] does the source give for “HIV-1 Nef (SF2) F121A, YFP BiFC fusions (natural protein)” here?
Answer: 33%

Question: Which % decrease in BiFC relative to WT [6] does the source give for “HIV-1 Nef (SF2) I109D/L112D/Y115D/F121D, YFP BiFC fusions (natural protein)” here?
Answer: 99.9%

Question: With “HIV-1 Nef (SF2) L112A, YFP BiFC fusions (natural protein)” as the substance, how does the % decrease in BiFC relative to WT [7] read?
Answer: 52.8%

Question: How did the % decrease in BiFC relative to WT [8] turn out when “HIV-1 Nef (SF2) L112D, YFP BiFC fusions (natural protein)” was run?
Answer: 47.5%

Question: “HIV-1 Nef (SF2) L112D/Y115D, YFP BiFC fusions (natural protein)” was tested. Which % decrease in BiFC relative to WT [9] did it give?
Answer: 86.7%

Question: How did the % decrease in BiFC relative to WT [10] turn out when “HIV-1 Nef (SF2) R105E, YFP BiFC fusions (natural protein)” was run?
Answer: 49.9%

Question: Which % decrease in BiFC relative to WT [11] does the source give for “HIV-1 Nef (SF2) R105E/R106E, YFP BiFC fusions (natural protein)” here?
Answer: 71.1%

Question: “HIV-1 Nef (SF2) Y115D, YFP BiFC fusions (natural protein)” was tested. Which % decrease in BiFC relative to WT [12] did it give?
Answer: 59.1%

Reference: PMC2783173
